{"source": "paper PMC6048764", "about": "“Myricetin antagonizes semen-derived enhancer of viral infection (SEVI) formation and influences its infection-enhancing activity” (Retrovirology, 2018)", "proteins": {"B1": {"name": "PAP257–273 Arg273A (peptide, UniProt P15309 257-273, looked up)", "peptide": "RLQGGVLVNEILNHMKA", "notes": "source: synthetic peptide"}, "B2": {"name": "SEM2_(86–107) (peptide, UniProt Q02383 86-107, looked up)", "peptide": "DLNALHKATKSKQHLGGSQQLL", "notes": "source: synthetic peptide (Scilight Biotechnology LLC, Beijing)"}, "B3": {"name": "PAP257–273 Leu268A (peptide, UniProt P15309 257-273, looked up)", "peptide": "RLQGGVLVNEIANHMKR", "notes": "source: synthetic peptide"}, "B4": {"name": "PAP257–273 GIn259A (peptide, UniProt P15309 257-273, looked up)", "peptide": "RLAGGVLVNEILNHMKR", "notes": "source: synthetic peptide"}, "B5": {"name": "PAP257–273 Leu258A (peptide, UniProt P15309 257-273, looked up)", "peptide": "RAQGGVLVNEILNHMKR", "notes": "source: synthetic peptide"}, "B6": {"name": "SEM1_(86–107) (peptide, UniProt P04279 86-107, looked up)", "peptide": "DLNALHKTTKSQRHLGGSQQLL", "notes": "as for B2"}}, "target": "the molecule itself", "assay": "thioflavin T fluorescence; amyloid fibril formation; peptide 3 mg/ml agitated at 1400 rpm at 37 °C for 48 h, without myricetin"}
{"protein": "B1", "values": [{"measurement": "binding result", "result": "binds"}]}
{"protein": "B2", "values": [{"measurement": "binding result", "result": "binds"}]}
{"protein": "B3", "values": [{"measurement": "binding result", "result": "binds"}]}
{"protein": "B4", "values": [{"measurement": "binding result", "result": "binds"}]}
{"protein": "B5", "values": [{"measurement": "binding result", "result": "binds"}]}
{"protein": "B6", "values": [{"measurement": "binding result", "result": "binds"}]}
